We go through seven molecules from article PMC6376029, “Diversity within the adenovirus fiber knob hypervariable loops influences primary receptor interactions” (Nature Communications, 2019).

What is called stoichiometry N is a count of units in the complex or per binding partner. As usually defined, the Kd is a measure of binding affinity in units of concentration. As a reminder, the koff is a measure of how fast the partners let go of each other.

Assay [1] deals with Recombinant Human CD46 Protein (His Tag) (human) (UniProt P15529). Briefly: SPR; BIAcore 3000, CM5 chip, about 5000 RU of receptor amine-coupled; equilibrium binding analysis of HAdV-D26K (367 uM) and HAdV-B3K (3 uM as printed), 5x 1:3 serial dilutions; 1:1 Langmuir fit; 25 C, PBS, 30 ul/min. For orientation: Surface plasmon resonance follows binding to a sensor surface in real time, without labels.

Assay [2] deals with HAdV-D26 fiber-knob protein (human adenovirus D serotype 26). Briefly: crystal structure; sitting-drop vapour diffusion, 18 C, protein about 7.5 mg/ml in 10 mM Tris pH 8.0, 30 mM NaCl; data at 100 K, Diamond I04.
Assay [3] has as its target Recombinant Human CXADR Fc Chimera Protein (CAR) (human) (UniProt P78310). Briefly: SPR; BIAcore 3000, CM5 chip, about 5000 RU of receptor (CD46, CAR or DSG2) amine-coupled; fiber-knob injected; single cycle kinetics, top concentration around 200 uM with four 1:3 dilutions; 25 C, PBS, 30 ul/min.
Assay [4] addresses HAdV-D48 fiber-knob protein (human adenovirus D serotype 48). Briefly: crystal structure; sitting-drop vapour diffusion, 18 C, protein about 7.5 mg/ml in 10 mM Tris pH 8.0, 30 mM NaCl; data at 100 K, Diamond I04.
Assay [5] concerns the target Recombinant Human Desmoglein-2 Fc Chimera Protein (human) (UniProt Q14126). Briefly: SPR; BIAcore 3000, CM5 chip, about 5000 RU of receptor amine-coupled; equilibrium binding analysis of HAdV-D26K (367 uM) and HAdV-B3K (3 uM as printed), 5x 1:3 serial dilutions; 1:1 Langmuir fit; 25 C, PBS, 30 ul/min.
The target in assay [6] is T1, Recombinant Human CXADR Fc Chimera Protein (CAR) (human, UniProt P78310).
T1 chain: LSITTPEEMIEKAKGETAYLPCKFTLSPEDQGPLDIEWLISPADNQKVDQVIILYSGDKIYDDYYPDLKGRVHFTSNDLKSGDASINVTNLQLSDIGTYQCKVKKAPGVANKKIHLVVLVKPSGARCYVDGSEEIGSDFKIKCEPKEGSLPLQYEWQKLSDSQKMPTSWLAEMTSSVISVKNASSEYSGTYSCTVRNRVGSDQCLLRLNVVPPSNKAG
Briefly: SPR.

Assay [7] addresses T2, Recombinant Human CD46 Protein (His Tag) (human, UniProt P15529 35-343).
T2 chain: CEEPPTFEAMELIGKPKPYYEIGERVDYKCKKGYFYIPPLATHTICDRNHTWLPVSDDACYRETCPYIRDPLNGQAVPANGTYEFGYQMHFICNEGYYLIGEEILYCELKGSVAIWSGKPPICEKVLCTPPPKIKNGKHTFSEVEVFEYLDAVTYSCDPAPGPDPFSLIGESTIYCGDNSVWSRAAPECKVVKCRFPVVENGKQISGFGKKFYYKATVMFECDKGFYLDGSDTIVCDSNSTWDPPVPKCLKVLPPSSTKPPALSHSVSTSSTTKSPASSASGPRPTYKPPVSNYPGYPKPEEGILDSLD
Briefly: SPR.

The target of assay [8] is T2, Recombinant Human CD46 Protein (His Tag). Briefly: SPR.
Assay [9] concerns the target T1, Recombinant Human CXADR Fc Chimera …. Briefly: SPR.
In assay [10] the target is T3, Recombinant Human CXADR Fc Chimera Protein (CAR) (human, UniProt P78310).
T3 construct: human Coxsackie and Adenovirus Receptor (CXADR) part of a commercial Fc chimera; Probably the extracellular domain fused to human IgG1 Fc (recalled); source: bought: R&D Systems
T3 sequence: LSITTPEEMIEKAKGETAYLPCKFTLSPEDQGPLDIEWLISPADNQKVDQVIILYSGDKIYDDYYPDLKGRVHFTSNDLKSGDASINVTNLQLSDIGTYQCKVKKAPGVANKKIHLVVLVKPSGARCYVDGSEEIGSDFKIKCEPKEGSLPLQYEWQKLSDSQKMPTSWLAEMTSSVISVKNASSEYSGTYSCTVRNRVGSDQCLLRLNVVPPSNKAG
Briefly: SPR; BIAcore 3000, CM5 chip, about 5000 RU of receptor (CD46, CAR or DSG2) amine-coupled; fiber-knob injected; single cycle kinetics, top concentration around 200 uM with four 1:3 dilutions; 25 C, PBS, 30 ul/min. The conditions noted are these: both partners purified.

Sequence of Recombinant Human Desmoglein-2 Fc Chimera Protein (human) (Q14126 50-609, stated change not applied): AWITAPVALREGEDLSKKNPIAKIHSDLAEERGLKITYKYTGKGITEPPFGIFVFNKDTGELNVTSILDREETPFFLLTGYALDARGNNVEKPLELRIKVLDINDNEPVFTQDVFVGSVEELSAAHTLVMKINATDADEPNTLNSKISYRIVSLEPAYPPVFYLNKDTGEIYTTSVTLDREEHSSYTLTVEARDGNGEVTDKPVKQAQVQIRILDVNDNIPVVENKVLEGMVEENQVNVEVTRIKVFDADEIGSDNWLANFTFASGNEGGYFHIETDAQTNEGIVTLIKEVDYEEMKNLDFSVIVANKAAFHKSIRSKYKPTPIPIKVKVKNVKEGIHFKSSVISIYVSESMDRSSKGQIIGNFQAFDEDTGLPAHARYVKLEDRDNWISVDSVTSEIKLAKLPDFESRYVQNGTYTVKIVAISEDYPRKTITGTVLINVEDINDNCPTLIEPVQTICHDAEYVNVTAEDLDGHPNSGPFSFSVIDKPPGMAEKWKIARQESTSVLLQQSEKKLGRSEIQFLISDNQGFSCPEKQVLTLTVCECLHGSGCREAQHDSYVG

Regarding “HAdV-D26 fiber-knob protein (domain or fragment)”, the fold weaker affinity (KD) than HAdV-B35K in [1] is greater than 1500 fold. In assay [2], the stoichiometry N stood at 3.
Consider “HAdV-D48 fiber-knob protein (domain or fragment)”, for which, in assay [3], the fold higher affinity than HAdV-D26K turned out to be 2 fold. This molecule also displayed a stoichiometry N in [4] of 3.
With “HAdV-B3 fiber-knob protein (from UniProt P04501 1-319) (domain or fragment)”, the Kd in [5] was found to be 66.9 µM.

B1: HAdV-D26 fiber-knob protein (domain or fragment)
chain: RRTLWTTPDTSPNCKMSTEKDSKLTLTLTKCGSQVLGNVSLLAVTGEYHQMTATTKKDVKISLLFDENGILLPSSSLSKDYWNYRSDDSIVSQKYNNAVPFMPNLTAYPKPSAQNAKNYSRTKIISNVYLGALTYQPVIITIAFNQETENGCAYSITFTFTWQKDYSAQQFDVTSFTFSYLTQE
Consider B1, for which, in [6], the Kd worked out at 21 µM.

B2: HAdV-B35 fiber-knob protein (domain or fragment)
chain: TLWTGINPPPNCQIVENTNTNDGKLTLVLVKNGGLVNGYVSLVGVSDTVNQMFTQKTANIQLRLYFDSSGNLLTEESDLKIPLKNKSSTATSETVASSKAFMPSTTAYPFNTTTRDSENYIHGICYYMTSYDRSLFPLNISIMLNSRMISSNVAYAIQFEWNLNASESPESNIATLTTSPFFFSYITEDDN
With B2, in assay [7], the koff was determined as 0.032 s⁻¹. For the same molecule, the dissociation constant Kd in [8] is 0.027 µM.

B3: HAdV-D48 fiber-knob protein (domain or fragment)
chain: DKLTLWTTPDPSPNCKIDQDKDSKLTFVLTKCGSQILANMSLLVVKGKFSMINNKVNGTDDYKKFTIKLLFDEKGVLLKDSSLDKEYWNYRSNNNNVGSAYEEAVGFMPSTTAYPKPPTPPTNPTTPLEKSQAKNKYVSNVYLGGQAGNPVATTVSFNKETGCTYSITFDFAWNKTYENVQFDSSFLTFSYIAQE
As for B3, the koff in assay [9] was found to be 0.0024 s⁻¹. Moreover, in [6], the Kd turned out to be 9.3 µM.

B4: HAdV-C5 fiber-knob protein (domain or fragment)
chain: KNNDKLTLWTTPAPSPNCRLNAEKDAKLTLVLTKCGSQILATVSVLAVKGSLAPISGTVQSAHLIIRFDENGVLLNNSFLDPEYWNFRNGDLTEGTAYTNAVGFMPNLSAYPKSHGKTAKSNIVSQVYLNGDKTKPVTLTITLNGTQETGDTTPSAYSMSFSWDWSGHNYINEIFATSSYTFSYIAQE
notes: fiber-knob domain of the fiber protein (pIV) of human adenovirus species C serotype 5; Vector pQE-30 probably adds an N-terminal His6 tag (surmised); also called HAdV-C5K; HAdV-C5 fiber-knob domain
On to B4, for which, in [9], the dissociation rate constant (koff) was determined as 0.0016 s⁻¹. Moreover, the Kd in [10] was determined as 0.00076 µM.
